Source: US20050037969A1 (ARBOR VITA, published 2005)
Values belong to the binder of their own block, whether it stands above or below them. Ends that are not written are not given here. * marks the point of attachment. Biotin = O=C1N[C@H]2[C@H](CS[C@H]2CCCCC(=O)*)N1

Key:
[1] = biological target: T1, KIAA0807 (PDZ domain)-GST fusion protein (human, UniProt Q6P0Q8 1104-1192); assay: G assay on KIAA0807:GST fusion protein, 1 uM labeled peptide
T1 construct: also called K807; KIAA807; not shown: glutathione S-transferase encoded by vector pGEX-3X (Pharmacia)
T1 sequence: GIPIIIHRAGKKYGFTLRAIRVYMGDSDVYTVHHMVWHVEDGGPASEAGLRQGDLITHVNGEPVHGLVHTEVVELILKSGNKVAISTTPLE

[2] = biological target: T2, GST-mouse syntenin fusion protein (Mus musculus, UniProt O08992 108-286); assay: A/G plate assays, Table 2 matrix
T2 construct: also called Mus musculus Syntenin; not shown: glutathione S-transferase encoded by vector pGEX-3X (Pharmacia)
T2 chain: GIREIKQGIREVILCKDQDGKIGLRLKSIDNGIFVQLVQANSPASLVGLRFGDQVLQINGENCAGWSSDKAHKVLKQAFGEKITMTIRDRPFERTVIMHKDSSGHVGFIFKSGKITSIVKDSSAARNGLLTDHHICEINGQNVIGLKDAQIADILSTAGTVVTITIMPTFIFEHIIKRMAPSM

[3] = biological target: T3, GST-DVL1 PDZ domain fusion protein (human, UniProt O14640 247-339); assay: A/G plate assays, Table 2 matrix
T3 construct: also called human dishevelled segment polarity protein homolog; not shown: glutathione S-transferase encoded by vector pGEX-3X (Pharmacia)
T3 sequence: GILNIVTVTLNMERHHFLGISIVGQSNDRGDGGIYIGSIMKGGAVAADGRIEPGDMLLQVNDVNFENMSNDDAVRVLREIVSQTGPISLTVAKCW

[4] = biological target: T4, GST-TAX-IP43 PDZ domain fusion protein (human, UniProt Q13884 109-180); assay: A/G plate assays, Table 2 matrix
T4 construct: also called TAX43; not shown: glutathione S-transferase encoded by vector pGEX-3X (Pharmacia)
T4 sequence: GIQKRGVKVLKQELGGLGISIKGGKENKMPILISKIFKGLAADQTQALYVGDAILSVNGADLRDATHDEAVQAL

[5] = biological target: T5, GST-cytohesin binding protein PDZ domain fusion protein (Homo sapiens (Human), UniProt O60759 74-165); assay: A/G plate assays, Table 2 matrix
T5 construct: also called CBP; not shown: glutathione S-transferase encoded by vector pGEX-3X (Pharmacia)
T5 sequence: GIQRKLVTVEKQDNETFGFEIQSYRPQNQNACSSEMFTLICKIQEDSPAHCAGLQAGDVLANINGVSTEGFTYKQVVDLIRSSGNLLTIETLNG

[6] = biological target: T6, GST-DLG5 (p-dlg) PDZ domain fusion protein (Human, UniProt Q8TDM6 1343-1583); assay: A/G plate assays, Table 2 matrix
T6 construct: also called Human discs large protein p-dlg; not shown: glutathione S-transferase encoded by vector pGEX-3X (Pharmacia)
T6 sequence: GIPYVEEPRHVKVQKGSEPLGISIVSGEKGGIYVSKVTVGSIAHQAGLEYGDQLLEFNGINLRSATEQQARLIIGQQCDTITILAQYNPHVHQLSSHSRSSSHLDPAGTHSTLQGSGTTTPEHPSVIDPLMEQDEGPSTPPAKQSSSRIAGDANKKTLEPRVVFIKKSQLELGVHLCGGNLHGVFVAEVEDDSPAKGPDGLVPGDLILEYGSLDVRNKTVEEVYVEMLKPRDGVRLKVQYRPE

Binder: Biotin-QFMTADETRNLQNVDMKIGV (also called CD44 (long form)) [CD44 C-terminal peptide AA9L, biotinylated]
- binding result [2]: binds

Binder: Biotin-TTNNNPNSAVNIKKIFTDV [KV1.3 C-terminal peptide AA33L, biotinylated]
- binding result [3]: binds

Second part, the binder after the results:

- binding result [1]: binds
Binder: Biotin-PSWRRSSLSESENATSLTTF (also called CXCR5) [BLR-1 C-terminal peptide AA45L, biotinylated]

- binding result [4]: binds
- binding result [5]: binds
- binding result [6]: binds
B1: Spectrin (beta) C-terminal peptide AA32L, biotinylated (peptide)
peptide: Biotin-SFPPCGHRENVPGQSLVSFV
notes: Marked (S), sticky; also called Spectrin beta (S); Spectrin β
